In paper PMC3235116:
“And” between values parts separate entries of the source, which are not always exact repeats. Equal entries are not always repeated.

Key:
[1] = tested on: P69949; assay: AUC; each his-tagged enolase alone in SPR binding buffer (no Mg2+, with EDTA, pH 7.4); octamer to monomers
[2] = tested on: P69949; assay: AUC; F137L/E363G enolase incubated at pH 4.5 for one hour and dialysed overnight against SPR binding buffer; soluble fraction; octamer to monomers
[3] = target: Streptococcus pyogenes enolase F137L/E363G with an N-terminal hexa-histidine tag (Streptococcus pyogenes) (UniProt P69949); assay: SPR; N-terminal His6 F137L/E363G Str enolase captured at neutral pH on Ni-NTA chip (~150 RU); single-cycle titration 15-2000 nM
[4] = target: Streptococcus pyogenes enolase F137L/E363G with an N-terminal hexa-histidine tag (Streptococcus pyogenes) (UniProt P69949); assay: ITC; Str enolase brought to pH 4.5 (precipitated), dialysed to pH 6.9, dissolved in 27% urea, dialysed again at pH 6.9, about 30% specific activity left; enolase titrated with dPgn, close to 20°C
[5] = target: Streptococcus pyogenes enolase F137L/E363G with an N-terminal hexa-histidine tag (Streptococcus pyogenes) (UniProt P69949); assay: co-sedimentation; Str enolase (300 nM) adsorbed to azolectin (phosphatidyl choline) micelles, dPgn 1000 nM, 10 mM potassium phosphate, 100 mM NaCl, 4°C three days, 20 000 rpm 2 h, SDS-PAGE of pellets and supernates
[6] = target: wild type Streptococcus pyogenes enolase with no tag (Streptococcus pyogenes) (UniProt P69949); assay: AUC; sedimentation velocity of each purified enolase alone, native (data not shown); octamer
[7] = target: wild type Streptococcus pyogenes enolase with an N-terminal hexa-histidine tag (Streptococcus pyogenes) (UniProt P69949); assay: as above
[8] = target: wild type Streptococcus pyogenes enolase with an N-terminal hexa-histidine tag (Streptococcus pyogenes) (UniProt P69949); assay: AUC; each his-tagged enolase alone in SPR binding buffer (no Mg2+, with EDTA, pH 7.4); octamer to monomers
[9] = target: wild type Streptococcus pyogenes enolase with a C-terminal deca-histidine tag (Streptococcus pyogenes) (UniProt P69949); assay: AUC; sedimentation velocity of each purified enolase alone, native (data not shown); octamer
[10] = target: wild type Streptococcus pyogenes enolase with a C-terminal deca-histidine tag (Streptococcus pyogenes) (UniProt P69949); assay: AUC; each his-tagged enolase alone in SPR binding buffer (no Mg2+, with EDTA, pH 7.4); octamer to monomers
[11] = target: Streptococcus pyogenes enolase F137L/E363G with an N-terminal hexa-histidine tag (Streptococcus pyogenes) (UniProt P69949); assay: AUC; sedimentation velocity of each purified enolase alone, native (data not shown); octamer
[12] = target: Streptococcus pyogenes enolase F137L/E363G with an N-terminal hexa-histidine tag (Streptococcus pyogenes) (UniProt P69949); assay: AUC; each his-tagged enolase alone in SPR binding buffer (no Mg2+, with EDTA, pH 7.4); octamer to monomers
[13] = target: canine plasminogen (canine); assay: SPR; dPgn amine-coupled at pH 4.5 to CM4 chip (340 RU); titration with F137L/E363G Str enolase 0-500 nM (2-fold series), 25°C
[14] = target: canine plasminogen (canine); assay: ITC; Str enolase brought to pH 9 (precipitated), dialysed back to pH 6.9, 30% activity left; enolase titrated into dPgn, close to 20°C
[15] = target: Streptococcus pyogenes enolase F137L/E363G with an N-terminal hexa-histidine tag (Streptococcus pyogenes) (UniProt P69949); assay: AUC; F137L/E363G enolase incubated at pH 4.5 for one hour and dialysed overnight against SPR binding buffer; soluble fraction; octamer to monomers
[16] = target: fluorescently labeled, catalytically inactive derivative of human plasminogen (5'IAF-Pg S741C) (human); assay: fluorescence polarisation; Str enolase first brought to pH 4.5, then diluted into phosphate buffer pH 6.7 (non-native enolase); labelled hPgn 140 nM, Str enolase 0.057 mM, 20°C
[17] = target: canine plasminogen (canine); assay: co-sedimentation; dPgn made to precipitate with reductant (0.2 M DTT) in the presence of native soluble Str enolase; centrifuged, pellets and supernates on SDS-PAGE; initial dPgn:enolase monomer 1:1 or 1:3

“Streptococcus pyogenes enolase F137L/E363G with an N-terminal hexa-histidine tag” was tested, and the % monomeric [1] was 36% and the “% monomeric” value [2] was 75% was monomeric.
With canine plasminogen (natural protein) the stoichiometry N (dPgn per enolase monomer) [3] was 1, the stoichiometry N (dPgn per enolase monomer) [4] was 0.34 and the amount of dPgn relative to Str enolase that co-sedimented (Str enolase per dPgn (as 1:x)) [5] was 1 and 1.2.
For “wild type Streptococcus pyogenes enolase with an N-terminal hexa-histidine tag”, the % monomeric [1] was 5%.
For “wild type Streptococcus pyogenes enolase with no tag (from UniProt P69949 1-435) (enzyme)”, the % octameric [6] was greater than 90% and the stoichiometry N [6] was 8.
In the case of “wild type Streptococcus pyogenes enolase with a C-terminal deca-histidine tag”, the % monomeric [1] is reported as 18%.
“wild type Streptococcus pyogenes enolase with an N-terminal hexa-histidine tag (from UniProt P69949 1-435) (enzyme)” gave a % octameric [7] greater than 90%, a stoichiometry N [7] of 8 and a % octameric [8] of 88%.
“wild type Streptococcus pyogenes enolase with a C-terminal deca-histidine tag (from UniProt P69949 1-435) (enzyme)” showed a % octameric [9] greater than 90%, a stoichiometry N [9] of 8 and a % octameric [10] of 68%.
Substance “Streptococcus pyogenes enolase F137L/E363G with an N-terminal hexa-histidine tag (from UniProt P69949 1-435) (enzyme)” has a % octameric [11] greater than 90%, a stoichiometry N [11] of 8 and a % octameric [12] of 57%. It also gave a half saturation of all the association phases [13] of 50 nM, a stoichiometry N (sites per enolase monomer) [14] of 0.18 and a % octameric [15] of 19%. It also gave a P (polarization) [16] of 0.43, a % of the precipitated protein that was Str enolase (initial ratio 1:1) [17] of 12% and a % of the precipitated protein that was Str enolase (initial ratio 1:3) [17] of 25%. It also gave a dPgn:enolase ratio in the pellet (initial ratio 1:1) (dPgn per enolase) [17] of 6 and a dPgn:enolase ratio in the pellet (initial ratio 1:3) (dPgn per enolase) [17] of 3.
